Results: PMC12724168, “Real-time simultaneous monitoring of multiple analytes in bacterial cultures” (Applied and Environmental Microbiology, 2025)

B1: LAOBP-22C Acrylodan (conjugate, UniProt P02911 23-260, looked up, variant A22C)
Lysine/arginine/ornithine-bind …: ALPQTVRIGTDTTYAPFSSKDCKGEFIGFDIDLGNEMCKRMQVKCTWVASDFDALIPSLKAKKIDAIISSLSITDKRQQEIAFSDKLYAADSRLIAAKGSPIQPTLESLKGKHVGVLQGSTQEAYANDNWRTKGVDVVAYANQDLIYSDLTAGRLDAALQDEVAASEGFLKQPAGKEYAFAGPSVKDKKYFGDGTGVGLRKDDTELKAAFDKALTELRQDGTYDKMAKKYFDFNVYGD
modifications: Acrylodan label
B2: LAOBP-22C IANBD (conjugate, UniProt P02911 23-260, looked up, variant A22C)
Lysine/arginine/ornithine-bind …: ALPQTVRIGTDTTYAPFSSKDCKGEFIGFDIDLGNEMCKRMQVKCTWVASDFDALIPSLKAKKIDAIISSLSITDKRQQEIAFSDKLYAADSRLIAAKGSPIQPTLESLKGKHVGVLQGSTQEAYANDNWRTKGVDVVAYANQDLIYSDLTAGRLDAALQDEVAASEGFLKQPAGKEYAFAGPSVKDKKYFGDGTGVGLRKDDTELKAAFDKALTELRQDGTYDKMAKKYFDFNVYGD
modifications: IANBD label
B3: LAOBP-22C Texas Red (conjugate, UniProt P02911 23-260, looked up, variant A22C)
Lysine/arginine/ornithine-bind …: ALPQTVRIGTDTTYAPFSSKDCKGEFIGFDIDLGNEMCKRMQVKCTWVASDFDALIPSLKAKKIDAIISSLSITDKRQQEIAFSDKLYAADSRLIAAKGSPIQPTLESLKGKHVGVLQGSTQEAYANDNWRTKGVDVVAYANQDLIYSDLTAGRLDAALQDEVAASEGFLKQPAGKEYAFAGPSVKDKKYFGDGTGVGLRKDDTELKAAFDKALTELRQDGTYDKMAKKYFDFNVYGD
modifications: Texas Red label
B4: LAOBP-22C TMR (conjugate, UniProt P02911 23-260, looked up, variant A22C)
Lysine/arginine/ornithine-bind …: ALPQTVRIGTDTTYAPFSSKDCKGEFIGFDIDLGNEMCKRMQVKCTWVASDFDALIPSLKAKKIDAIISSLSITDKRQQEIAFSDKLYAADSRLIAAKGSPIQPTLESLKGKHVGVLQGSTQEAYANDNWRTKGVDVVAYANQDLIYSDLTAGRLDAALQDEVAASEGFLKQPAGKEYAFAGPSVKDKKYFGDGTGVGLRKDDTELKAAFDKALTELRQDGTYDKMAKKYFDFNVYGD
modifications: TMR label
B5: LAOBP-22C Alexa488 (conjugate, UniProt P02911 23-260, looked up, variant A22C)
Lysine/arginine/ornithine-bind …: ALPQTVRIGTDTTYAPFSSKDCKGEFIGFDIDLGNEMCKRMQVKCTWVASDFDALIPSLKAKKIDAIISSLSITDKRQQEIAFSDKLYAADSRLIAAKGSPIQPTLESLKGKHVGVLQGSTQEAYANDNWRTKGVDVVAYANQDLIYSDLTAGRLDAALQDEVAASEGFLKQPAGKEYAFAGPSVKDKKYFGDGTGVGLRKDDTELKAAFDKALTELRQDGTYDKMAKKYFDFNVYGD
modifications: Alexa488 label

Experiments:
[1] = Fluorescence change of LAOBP-22C fluorophore conjugates upon addition of ligand; format: binding; conditions: LAOBP-22C mutant conjugates, ligand not given
Description: (§1) Because of this, we decided to design and develop a biosensor for arginine, using the lysine/arginine/ornithine binding protein from Salmonella (LAOBP) ([52]). We carried out cysteine scanning by introducing four individual cysteine mutations at positions near the hinge region. The selection of cysteine positions was guided by the crystal structures of the apo and bound forms of the protein ([53]) (Fig. S1). Each of the four mutants was conjugated to six different fluorophores, and the fluorescence change upon the addition of ligand was characterized for each of the 24 protein-ligand conjugates. […] We determined the dissociation constants for all three ligands (arginine, lysine, and ornithine) using the LAOBP-22C acrylodan conjugate (Fig. 1F) and the coumarin conjugate (Fig. S2). With a large change in fluorescence and a dissociation constant of 1.5 µM for both arginine and lysine, we chose to use the LAOBP-22C acrylodan conjugate for subsequent experiments.
Fluorescence analysis of protein-fluorophore conjugates was carried out on a Jasco FP-8500 fluorometer. UV-clear, four-sided cuvettes containing 200–300 nM labeled protein in working buffer were used. The following parameters were used for each of the fluorophores: Acrylodan (excitation: 359 nm, emission: 440–550 nm), Coumarin (excitation: 390 nm, emission: 430–520 nm), IANBD (excitation: 460 nm, emission: 500–600 nm), Alexa488 (excitation: 490 nm, emission: 500–560 nm), TMR (excitation: 555 nm, emission: 570–620 nm), and Texas Red (excitation: 595 nm, emission: 600–660 nm). Titrations were carried out by adding increasing amounts of ligand while monitoring changes in emission at the maximum wavelength. Fluorescence values were volume adjusted, and Kd values were determined by fitting the titration data using Kaleidagraph according to the following equation: […]

[2] = Fluorescence titration of LAOBP-22C conjugates with arginine; format: binding; conditions: LAOBP-22C conjugate, ligand arginine
Description: as §1
(§2) Fluorescence analysis of protein-fluorophore conjugates was carried out on a Jasco FP-8500 fluorometer. […] Fluorescence values were volume adjusted, and Kd values were determined by fitting the titration data using Kaleidagraph according to the following equation: […]
(§3) where F is the observed fluorescence at a given ligand concentration [L], Fo is the fluorescence in the absence of ligand, and Fmax is the fluorescence at saturation.

[3] = Fluorescence titration of LAOBP-22C conjugates with lysine; format: binding; conditions: LAOBP-22C conjugate, ligand lysine
Description: as §1, §2, §3

[4] = Fluorescence titration of LAOBP-22C conjugates with ornithine; format: binding; conditions: LAOBP-22C conjugate, ligand ornithine
Description: as §1, §2, §3

[5] = tested on: cultures of P. aeruginosa, S. aureus, E.coli, E. faecalis, and C. striatum; assay: Gel electrophoresis of biosensors after 24 h in bacterial cultures (stability); conditions: 24 hours in culture, LB, supernatants
Method: To determine if the observed changes in fluorescence were not simply the result of degradation of the protein sensors over the course of E. coli growth, glucose, individual ligands (arabinose, ribose, glutamate, arginine, or ornithine) were added to 24-hour-old cultures containing each corresponding PBP. Immediately after the addition of the respective analyte, fluorescence was measured again (Fig. 3F).
Figure S3: Gel electrophoresis analysis of the stability of the biosensors after incubation with different bacterial species in culture for 24 hours. Left gel: TnGBP, Right gel: LAOBP. A Bio-Rad gel imager was used to detect the fluorescently labeled biosensor in each sample. In each gel, the lanes are as follows: 1. MW standard, 2. Pure protein, 3. Pure protein in LB with no bacteria, 4 – 8: supernatants after 24 hours of cultures of P. aeruginosa, S. aureus-GBP, E.coli, E. faecalis, and C. striatum.

Row | Molecule | % Change [1] | Kd [2] [µM] | Kd [3] [µM] | Kd [4] [µM] | stability of the biosensor in bacterial culture (gel electrophoresis) [5]
1 | B1 | −50% | 1.5 ± 0.1 | 1.5 ± 0.1 | 38.9 ± 1.8 | two bands are visible
2 | B2 | -8% |  |  |  | 
3 | B3 | −22% |  |  |  | 
4 | B4 | −10% |  |  |  | 
5 | B5 | +8% |  |  |  | 
